From IntAct's records for PubMed 16236155

B1: ADP-ribosylation factor 3 (Arabidopsis thaliana (Mouse-ear cress)), P40940 (parent)
chain: MGILFTRMFSSVFGNKEARILVLGLDNAGKTTILYRLQMGEVVSTIPTIGFNVETVQYNNIKFQVWDLGGQTSIRPYWRCYFPNTQAVIYVVDSSDTDRIGVAKEEFHAILEEDELKGAVVLIFANKQDLPGALDDAAVTEALELHKIKSRQWAIFKTCAVKGEGLFEGLDWLSNTLKSGSG
partner: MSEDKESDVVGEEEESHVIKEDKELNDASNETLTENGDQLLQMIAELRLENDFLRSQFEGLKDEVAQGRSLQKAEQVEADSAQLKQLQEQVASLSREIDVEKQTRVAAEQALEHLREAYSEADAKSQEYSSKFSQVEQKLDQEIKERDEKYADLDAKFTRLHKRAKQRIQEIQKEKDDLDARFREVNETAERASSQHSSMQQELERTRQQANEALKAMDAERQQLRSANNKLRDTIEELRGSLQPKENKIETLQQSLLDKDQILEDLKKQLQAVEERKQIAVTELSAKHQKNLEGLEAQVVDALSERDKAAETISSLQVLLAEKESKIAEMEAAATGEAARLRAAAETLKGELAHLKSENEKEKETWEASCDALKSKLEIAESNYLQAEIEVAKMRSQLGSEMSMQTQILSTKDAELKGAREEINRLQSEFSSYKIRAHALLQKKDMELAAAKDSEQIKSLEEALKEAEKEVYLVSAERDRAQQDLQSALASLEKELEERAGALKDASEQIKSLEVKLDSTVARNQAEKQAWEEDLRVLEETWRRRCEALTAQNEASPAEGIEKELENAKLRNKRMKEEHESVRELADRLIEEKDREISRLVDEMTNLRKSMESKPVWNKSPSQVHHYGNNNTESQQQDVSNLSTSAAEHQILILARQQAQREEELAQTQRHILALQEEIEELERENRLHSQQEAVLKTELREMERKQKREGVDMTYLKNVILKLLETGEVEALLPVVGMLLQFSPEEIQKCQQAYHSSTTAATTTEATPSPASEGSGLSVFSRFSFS
B2: Protein GRIP (Arabidopsis thaliana (Mouse-ear cress)), Q8S2T0 (parent)
chain: B1 partner
partner: B1 chain

Variants of: B1
Settings: with grip_arath GRIP, Q8S2T0

| Variant | effect of a mutation on the interaction |
| --- | --- |
| T31N | disrupting interaction |

Variants of: B1
Settings: with grip_arath GRIP

| Variant | effect of a mutation on the interaction |
| --- | --- |
| Q71L | causing an interaction |

Variants of: B2
Settings: with arf3_arath ARF3, P40940

| Variant | effect of a mutation on the interaction |
| --- | --- |
| Y717A | decreasing interaction |
